Measurements: patent publication US20240132578A1

Experiments:
Assay in all cases: cell-based or functional assay
[1] = target: HIV-1 Env of isolate MGRM-C-001 (subtype C) (HIV-1)
[2] = target: HIV-1 Env of isolate MGRM-C-019 (subtype C) (HIV-1)
[3] = target: HIV-1 Env of isolate MGRM-C-012 (subtype C) (HIV-1)
[4] = target: HIV-1 Env of isolate MGRM-C-014 (subtype C) (HIV-1)
[5] = target: HIV-1 Env of isolate MGRM-C-028 (subtype C) (HIV-1)
[6] = target: HIV-1 Env of isolate MGRM-C-013 (subtype C) (HIV-1)
[7] = target: HIV-1 Env of isolate MGRM-G-014 (subtype G), on pseudovirus (HIV-1)
[8] = target: HIV-1 Env of isolate MGRM-G-019 (subtype G), on pseudovirus (HIV-1)
[9] = target: HIV-1 Env of isolate MGRM-G-013 (subtype G), on pseudovirus (HIV-1)
[10] = target: HIV-1 Env of isolate 97ZA012 (subtype C) (HIV-1)
[11] = target: HIV-1 Env of isolate MGRM-G-017 (subtype G), on pseudovirus (HIV-1)
[12] = target: HIV-1 Env of isolate MGRM-C-009 (subtype C) (HIV-1)
[13] = target: HIV-1 Env of isolate MGRM-G-006 (subtype G), on pseudovirus (HIV-1)
[14] = target: HIV-1 Env of isolate MGRM-C-002 (subtype C) (HIV-1)
[15] = target: HIV-1 Env of isolate MGRM-G-009 (subtype G), on pseudovirus (HIV-1)
[16] = target: HIV-1 Env of isolate MGRM-C-015 (subtype C) (HIV-1)
[17] = target: HIV-1 Env of isolate MGRM-C-006 (subtype C) (HIV-1)
[18] = target: HIV-1 Env of isolate MGRM-G-016 (subtype G), on pseudovirus (HIV-1)
[19] = target: HIV-1 Env of isolate MGRM-C-010 (subtype C) (HIV-1)
[20] = target: HIV-1 Env of isolate MGRM-C-027 (subtype C) (HIV-1)
[21] = target: HIV-1 Env of isolate MGRM-C-025 (subtype C) (HIV-1)
[22] = target: HIV-1 Env of isolate MGRM-C-020 (subtype C) (HIV-1)
[23] = target: HIV-1 Env of isolate MGRM-C-022 (subtype C) (HIV-1)
[24] = target: HIV-1 Env of isolate MGRM-G-025 (subtype G), on pseudovirus (HIV-1)
[25] = target: HIV-1 Env of isolate MGRM-C-005 (subtype C) (HIV-1)
[26] = target: HIV-1 Env of isolate MGRM-G-028 (subtype G), on pseudovirus (HIV-1)
[27] = target: HIV-1 Env of isolate 93MW959 (subtype C) (HIV-1)
[28] = target: HIV-1 Env of isolate MGRM-C-024 (subtype C) (HIV-1)
[29] = target: HIV-1 Env of isolate MGRM-C-008 (subtype C) (HIV-1)
[30] = target: HIV-1 Env of isolate MGRM-G-027 (subtype G), on pseudovirus (HIV-1)
[31] = target: HIV-1 Env of isolate MGRM-C-026 (subtype C) (HIV-1)
[32] = target: HIV-1 Env of isolate MGRM-G-015 (subtype G), on pseudovirus (HIV-1)
[33] = target: HIV-1 Env of isolate 98IN022 (subtype C) (HIV-1)
[34] = target: HIV-1 Env of isolate MGRM-G-004 (subtype G), on pseudovirus (HIV-1)
[35] = target: HIV-1 Env of isolate MGRM-C-017 (subtype C) (HIV-1)
[36] = target: HIV-1 Env of isolate MGRM-G-001 (subtype G), on pseudovirus (HIV-1)
[37] = target: aMLV envelope, on pseudovirus (negative control)
[38] = target: HIV-1 Env of isolate MGRM-G-024 (subtype G), on pseudovirus (HIV-1)
[39] = target: HIV-1 Env of isolate MGRM-C-007 (subtype C) (HIV-1)
[40] = target: HIV-1 Env of isolate MGRM-C-023 (subtype C) (HIV-1)
[41] = target: HIV-1 Env of isolate MGRM-C-004 (subtype C) (HIV-1)
[42] = target: HIV-1 Env of isolate MGRM-G-011 (subtype G), on pseudovirus (HIV-1)
[43] = target: HIV-1 JR-CSF Env D474A (HIV-1 JR-CSF) (UniProt P20871)
[44] = target: HIV-1 JR-CSF Env G471A (HIV-1 JR-CSF) (UniProt P20871)

Substance: PGT-121 (antibody)
- IC50 (µg/mL), pseudovirus neutralization [1]: 17.5 µg/mL
- IC50 (µg/mL), pseudovirus neutralization [2]: > 50 µg/mL
- IC50 (µg/mL), pseudovirus neutralization [3]: 0.123 µg/mL
- IC50 (µg/mL), pseudovirus neutralization [4]: 26.9 µg/mL
- IC50 (µg/mL), pseudovirus neutralization [5]: 0.472 µg/mL
- IC50 (µg/mL), pseudovirus neutralization [6]: 7.23 µg/mL
- IC50 (µg/mL), neutralization of pseudovirus [7]: 0.009 µg/mL
- IC50 (µg/mL), neutralization of pseudovirus [8]: 0.011 µg/mL
- IC50 (µg/mL), neutralization of pseudovirus [9]: 3.99 µg/mL
- IC50 (µg/mL), pseudovirus neutralization [10]: 0.002 µg/mL
- IC50 (µg/mL), neutralization of pseudovirus [11]: 0.004 µg/mL
- IC50 (µg/mL), pseudovirus neutralization [12]: > 50 µg/mL
- IC50 (µg/mL), neutralization of pseudovirus [13]: > 50 µg/mL
- IC50 (µg/mL), pseudovirus neutralization [14]: 0.019 µg/mL
- IC50 (µg/mL), neutralization of pseudovirus [15]: 0.02 µg/mL
- IC50 (µg/mL), pseudovirus neutralization [16]: 25.1 µg/mL
- IC50 (µg/mL), pseudovirus neutralization [17]: 0.017 µg/mL
- IC50 (µg/mL), neutralization of pseudovirus [18]: > 50 µg/mL
- IC50 (µg/mL), pseudovirus neutralization [19]: > 50 µg/mL
- IC50 (µg/mL), pseudovirus neutralization [20]: 0.011 µg/mL
- IC50 (µg/mL), pseudovirus neutralization [21]: 46.8 µg/mL
- IC50 (µg/mL), pseudovirus neutralization [22]: > 50 µg/mL
- IC50 (µg/mL), pseudovirus neutralization [23]: 0.015 µg/mL
- IC50 (µg/mL), neutralization of pseudovirus [24]: 0.063 µg/mL
- IC50 (µg/mL), pseudovirus neutralization [25]: 0.015 µg/mL
- IC50 (µg/mL), neutralization of pseudovirus [26]: 0.014 µg/mL
- IC50 (µg/mL), pseudovirus neutralization [27]: 0.013 µg/mL
- IC50 (µg/mL), pseudovirus neutralization [28]: 0.052 µg/mL
- IC50 (µg/mL), pseudovirus neutralization [29]: 0.012 µg/mL
- IC50 (µg/mL), neutralization of pseudovirus [30]: 0.124 µg/mL
- IC50 (µg/mL), pseudovirus neutralization [31]: 0.002 µg/mL
- IC50 (µg/mL), neutralization of pseudovirus [32]: > 50 µg/mL
- IC50 (µg/mL), pseudovirus neutralization [33]: 0.007 µg/mL
- IC50 (µg/mL), neutralization of pseudovirus [34]: 0.115 µg/mL
- IC50 (µg/mL), pseudovirus neutralization [35]: 0.009 µg/mL
- IC50 (µg/mL), neutralization of pseudovirus [36]: 0.004 µg/mL
- IC50 (µg/mL), neutralization of pseudovirus [37]: > 50 µg/mL
- IC50 (µg/mL), neutralization of pseudovirus [38]: 0.014 µg/mL
- IC50 (µg/mL), pseudovirus neutralization [39]: 0.196 µg/mL
- IC50 (µg/mL), pseudovirus neutralization [40]: 0.017 µg/mL
- IC50 (µg/mL), pseudovirus neutralization [41]: 0.011 µg/mL
- IC50 (µg/mL), neutralization of pseudovirus [42]: 3.17 µg/mL

Substance: PGT-122 (antibody)
- IC50 (µg/mL), pseudovirus neutralization [1]: 19.1 µg/mL
- IC50 (µg/mL), pseudovirus neutralization [2]: > 50 µg/mL
- IC50 (µg/mL), pseudovirus neutralization [3]: 2 µg/mL
- IC50 (µg/mL), pseudovirus neutralization [4]: > 50 µg/mL
- IC50 (µg/mL), pseudovirus neutralization [5]: 2.22 µg/mL
- IC50 (µg/mL), pseudovirus neutralization [6]: 32.6 µg/mL
- IC50 (µg/mL), neutralization of pseudovirus [7]: 0.008 µg/mL
- IC50 (µg/mL), neutralization of pseudovirus [8]: 0.016 µg/mL
- Fold IC50 increase relative to wild-type [43]: 1.8 fold
- IC50 (µg/mL), neutralization of pseudovirus [9]: 3.45 µg/mL
- IC50 (µg/mL), pseudovirus neutralization [10]: 0.004 µg/mL
- IC50 (µg/mL), neutralization of pseudovirus [11]: 0.032 µg/mL
- IC50 (µg/mL), pseudovirus neutralization [12]: > 50 µg/mL
- IC50 (µg/mL), neutralization of pseudovirus [13]: > 50 µg/mL
- IC50 (µg/mL), pseudovirus neutralization [14]: 0.022 µg/mL
- IC50 (µg/mL), neutralization of pseudovirus [15]: 0.514 µg/mL
- IC50 (µg/mL), pseudovirus neutralization [16]: > 50 µg/mL
- IC50 (µg/mL), pseudovirus neutralization [17]: 0.018 µg/mL
- IC50 (µg/mL), neutralization of pseudovirus [18]: > 50 µg/mL
- IC50 (µg/mL), pseudovirus neutralization [19]: > 50 µg/mL
- IC50 (µg/mL), pseudovirus neutralization [20]: 0.039 µg/mL
- IC50 (µg/mL), pseudovirus neutralization [21]: 8.69 µg/mL
- IC50 (µg/mL), pseudovirus neutralization [22]: 14 µg/mL
- IC50 (µg/mL), pseudovirus neutralization [23]: 0.012 µg/mL
- IC50 (µg/mL), neutralization of pseudovirus [24]: 0.079 µg/mL
- IC50 (µg/mL), pseudovirus neutralization [25]: 0.027 µg/mL
- IC50 (µg/mL), neutralization of pseudovirus [26]: 0.01 µg/mL
- IC50 (µg/mL), pseudovirus neutralization [27]: 0.016 µg/mL
- IC50 (µg/mL), pseudovirus neutralization [28]: 0.102 µg/mL
- IC50 (µg/mL), pseudovirus neutralization [29]: 0.028 µg/mL
- IC50 (µg/mL), neutralization of pseudovirus [30]: 0.606 µg/mL
- Fold IC50 increase relative to wild-type [44]: 1.8 fold
- IC50 (µg/mL), pseudovirus neutralization [31]: 0.006 µg/mL
- IC50 (µg/mL), neutralization of pseudovirus [32]: > 50 µg/mL
- IC50 (µg/mL), pseudovirus neutralization [33]: 0.032 µg/mL
- IC50 (µg/mL), neutralization of pseudovirus [34]: 2.15 µg/mL
- IC50 (µg/mL), pseudovirus neutralization [35]: 0.015 µg/mL
- IC50 (µg/mL), neutralization of pseudovirus [36]: 0.005 µg/mL
- IC50 (µg/mL), neutralization of pseudovirus [37]: > 50 µg/mL
- IC50 (µg/mL), neutralization of pseudovirus [38]: 0.033 µg/mL
- IC50 (µg/mL), pseudovirus neutralization [39]: 3.35 µg/mL
- IC50 (µg/mL), pseudovirus neutralization [40]: 0.027 µg/mL
- IC50 (µg/mL), pseudovirus neutralization [41]: 0.02 µg/mL
- IC50 (µg/mL), neutralization of pseudovirus [42]: 31.3 µg/mL
